Measurements: publication doi:10.1101/2021.07.31.454588

Biological target: mCherry-LacRnls-IE1 1–540 (human herpesvirus 6B (HHV-6B))
Test: LacO/LacR tethering assay

NBS1 (nibrin, NBN), endogenous (from UniProt O60934 1-754) (natural protein)
percent of mCherry-LacRnls fusion foci colocalized with NBS1 at the LacO array: 81%
